Assay results taken from the Human Domainome abundance scans (Beltran et al. 2025).
± gives the uncertainty stated by the source.

B1: Advillin, residues 785 to 819; numbered along this chain, O75366 (parent)
chain: LSEQDFVSVFGITRGQFAALPGWKQLQMKKEKGLF

Variants of: B1
Experiment: abundance fitness (aPCA) (normalised: wild type 0, dead -1); higher = more abundant; growth selection in yeast, the domain comes from the species named
Details: Homo sapiens

Row | Variant | abundance fitness
1 | LSEQDFVSVFGITRGQFAALPGWKQLQAKKEKGLF [M28A] | -0.905 ± 0.15
2 | LSEQDFVSVFGITRGQFAALPGWKQLQCKKEKGLF [M28C] | -0.75 ± 0.16
3 | LSEQDFVSVFGITRGQFAALPGWKQLQGKKEKGLF [M28G] | -1.13 ± 0.097
4 | LSEQDFVSVFGITRGQFAALPGWKQLQHKKEKGLF [M28H] | -0.549 ± 0.2
5 | LSEQDFVSVFGITRGQFAALPGWKQLQIKKEKGLF [M28I] | -0.619 ± 0.27
6 | LSEQDFVSVFGITRGQFAALPGWKQLQKKKEKGLF [M28K] | -0.708 ± 0.19
7 | LSEQDFVSVFGITRGQFAALPGWKQLQLKKEKGLF [M28L] | -0.47 ± 0.11
8 | LSEQDFVSVFGITRGQFAALPGWKQLQPKKEKGLF [M28P] | -1.19 ± 0.26
9 | LSEQDFVSVFGITRGQFAALPGWKQLQRKKEKGLF [M28R] | -1.14 ± 0.11
10 | LSEQDFVSVFGITRGQFAALPGWKQLQSKKEKGLF [M28S] | -1.14 ± 0.19
11 | LSEQDFVSVFGITRGQFAALPGWKQLQTKKEKGLF [M28T] | -1.03 ± 0.15
12 | LSEQDFVSVFGITRGQFAALPGWKQLQVKKEKGLF [M28V] | -1.03 ± 0.18
13 | LSEQDFVSVFGITRGQFAALPGWKQLQMAKEKGLF [K29A] | -0.183 ± 0.061
14 | LSEQDFVSVFGITRGQFAALPGWKQLQMCKEKGLF [K29C] | -0.024 ± 0.06
15 | LSEQDFVSVFGITRGQFAALPGWKQLQMDKEKGLF [K29D] | -0.356 ± 0.18
16 | LSEQDFVSVFGITRGQFAALPGWKQLQMFKEKGLF [K29F] | -0.005 ± 0.26
17 | LSEQDFVSVFGITRGQFAALPGWKQLQMGKEKGLF [K29G] | -0.266 ± 0.065
18 | LSEQDFVSVFGITRGQFAALPGWKQLQMHKEKGLF [K29H] | -0.099 ± 0.11
19 | LSEQDFVSVFGITRGQFAALPGWKQLQMIKEKGLF [K29I] | -0.218 ± 0.12
20 | LSEQDFVSVFGITRGQFAALPGWKQLQMLKEKGLF [K29L] | -0.289 ± 0.071
21 | LSEQDFVSVFGITRGQFAALPGWKQLQMMKEKGLF [K29M] | -0.187 ± 0.16
22 | LSEQDFVSVFGITRGQFAALPGWKQLQMNKEKGLF [K29N] | -0.09 ± 0.081
23 | LSEQDFVSVFGITRGQFAALPGWKQLQMPKEKGLF [K29P] | -0.497 ± 0.11
24 | LSEQDFVSVFGITRGQFAALPGWKQLQMQKEKGLF [K29Q] | 0.026 ± 0.07

Row | Variant | abundance fitness
25 | LSEQDFVSVFGITRGQFAALPGWKQLQMRKEKGLF [K29R] | -0.023 ± 0.048
26 | LSEQDFVSVFGITRGQFAALPGWKQLQMSKEKGLF [K29S] | -0.017 ± 0.068
27 | LSEQDFVSVFGITRGQFAALPGWKQLQMTKEKGLF [K29T] | -0.043 ± 0.06
28 | LSEQDFVSVFGITRGQFAALPGWKQLQMVKEKGLF [K29V] | 0 ± 0.077
29 | LSEQDFVSVFGITRGQFAALPGWKQLQMWKEKGLF [K29W] | -0.075 ± 0.07
30 | LSEQDFVSVFGITRGQFAALPGWKQLQMYKEKGLF [K29Y] | -0.221 ± 0.21
31 | LSEQDFVSVFGITRGQFAALPGWKQLQMKAEKGLF [K30A] | 0.078 ± 0.055
32 | LSEQDFVSVFGITRGQFAALPGWKQLQMKCEKGLF [K30C] | -0.321 ± 0.077
33 | LSEQDFVSVFGITRGQFAALPGWKQLQMKEEKGLF [K30E] | 0.147 ± 0.082
34 | LSEQDFVSVFGITRGQFAALPGWKQLQMKFEKGLF [K30F] | -0.345 ± 0.12
35 | LSEQDFVSVFGITRGQFAALPGWKQLQMKGEKGLF [K30G] | -0.159 ± 0.055
36 | LSEQDFVSVFGITRGQFAALPGWKQLQMKHEKGLF [K30H] | -0.121 ± 0.097
37 | LSEQDFVSVFGITRGQFAALPGWKQLQMKIEKGLF [K30I] | -0.266 ± 0.17
38 | LSEQDFVSVFGITRGQFAALPGWKQLQMKLEKGLF [K30L] | -0.192 ± 0.058
39 | LSEQDFVSVFGITRGQFAALPGWKQLQMKMEKGLF [K30M] | 0.051 ± 0.089
40 | LSEQDFVSVFGITRGQFAALPGWKQLQMKNEKGLF [K30N] | 0.04 ± 0.33
41 | LSEQDFVSVFGITRGQFAALPGWKQLQMKPEKGLF [K30P] | -0.453 ± 0.069
42 | LSEQDFVSVFGITRGQFAALPGWKQLQMKQEKGLF [K30Q] | 0.026 ± 0.078
43 | LSEQDFVSVFGITRGQFAALPGWKQLQMKREKGLF [K30R] | 0.033 ± 0.058
44 | LSEQDFVSVFGITRGQFAALPGWKQLQMKSEKGLF [K30S] | -0.114 ± 0.063
45 | LSEQDFVSVFGITRGQFAALPGWKQLQMKTEKGLF [K30T] | -0.215 ± 0.096
46 | LSEQDFVSVFGITRGQFAALPGWKQLQMKVEKGLF [K30V] | -0.076 ± 0.063
47 | LSEQDFVSVFGITRGQFAALPGWKQLQMKKAKGLF [E31A] | -0.173 ± 0.059
48 | LSEQDFVSVFGITRGQFAALPGWKQLQMKKCKGLF [E31C] | -0.443 ± 0.088

Row | Variant | abundance fitness
49 | LSEQDFVSVFGITRGQFAALPGWKQLQMKKDKGLF [E31D] | 0.02 ± 0.1
50 | LSEQDFVSVFGITRGQFAALPGWKQLQMKKGKGLF [E31G] | -0.283 ± 0.055
51 | LSEQDFVSVFGITRGQFAALPGWKQLQMKKHKGLF [E31H] | -0.563 ± 0.5
52 | LSEQDFVSVFGITRGQFAALPGWKQLQMKKIKGLF [E31I] | -0.421 ± 0.21
53 | LSEQDFVSVFGITRGQFAALPGWKQLQMKKKKGLF [E31K] | -0.271 ± 0.21
54 | LSEQDFVSVFGITRGQFAALPGWKQLQMKKLKGLF [E31L] | -0.42 ± 0.064
55 | LSEQDFVSVFGITRGQFAALPGWKQLQMKKMKGLF [E31M] | -0.453 ± 0.088
56 | LSEQDFVSVFGITRGQFAALPGWKQLQMKKPKGLF [E31P] | -0.645 ± 0.096
57 | LSEQDFVSVFGITRGQFAALPGWKQLQMKKRKGLF [E31R] | -0.464 ± 0.067
58 | LSEQDFVSVFGITRGQFAALPGWKQLQMKKTKGLF [E31T] | -0.645 ± 0.13
59 | LSEQDFVSVFGITRGQFAALPGWKQLQMKKVKGLF [E31V] | -0.367 ± 0.12
60 | LSEQDFVSVFGITRGQFAALPGWKQLQMKKWKGLF [E31W] | -0.709 ± 0.14
61 | LSEQDFVSVFGITRGQFAALPGWKQLQMKKYKGLF [E31Y] | -0.746 ± 0.22
62 | LSEQDFVSVFGITRGQFAALPGWKQLQMKKEAGLF [K32A] | 0.017 ± 0.066
63 | LSEQDFVSVFGITRGQFAALPGWKQLQMKKEDGLF [K32D] | -0.624 ± 0.14
64 | LSEQDFVSVFGITRGQFAALPGWKQLQMKKEEGLF [K32E] | -0.175 ± 0.081
65 | LSEQDFVSVFGITRGQFAALPGWKQLQMKKEFGLF [K32F] | -0.48 ± 0.47
66 | LSEQDFVSVFGITRGQFAALPGWKQLQMKKEGGLF [K32G] | -0.156 ± 0.07
67 | LSEQDFVSVFGITRGQFAALPGWKQLQMKKEIGLF [K32I] | -0.536 ± 0.32
68 | LSEQDFVSVFGITRGQFAALPGWKQLQMKKELGLF [K32L] | -0.047 ± 0.087
69 | LSEQDFVSVFGITRGQFAALPGWKQLQMKKEMGLF [K32M] | 0.072 ± 0.1
70 | LSEQDFVSVFGITRGQFAALPGWKQLQMKKENGLF [K32N] | 0.122 ± 0.13
